# Assay results reported in US8697062B2, “Compositions and methods for ribonuclease-based therapeutics” (Quintessence Biosciences, Inc., priority 2007, dated 2014).
# Positions count from the first letter of the chain named. Numbers in names are those of the source.
# T1: human RI (Homo sapiens, UniProt P13489)
# T1 sequence (P13489 whole entry, looked up): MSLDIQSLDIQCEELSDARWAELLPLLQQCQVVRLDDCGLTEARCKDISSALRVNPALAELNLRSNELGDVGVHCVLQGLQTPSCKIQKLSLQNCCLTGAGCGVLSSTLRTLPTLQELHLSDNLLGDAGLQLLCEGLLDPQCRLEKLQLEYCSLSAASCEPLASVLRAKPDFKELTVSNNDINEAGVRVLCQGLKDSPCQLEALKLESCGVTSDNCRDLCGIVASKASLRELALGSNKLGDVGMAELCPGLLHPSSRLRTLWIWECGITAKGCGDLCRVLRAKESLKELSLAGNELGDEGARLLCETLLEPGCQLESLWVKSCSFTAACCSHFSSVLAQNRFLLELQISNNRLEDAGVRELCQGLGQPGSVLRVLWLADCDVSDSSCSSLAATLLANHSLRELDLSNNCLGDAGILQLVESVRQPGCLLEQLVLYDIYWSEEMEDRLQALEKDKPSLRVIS
# T2: hRI (Homo sapiens, UniProt P13489)
# T2 sequence (P13489 1-461): T1 sequence (P13489 whole entry, looked up)
# B1: 20 kDa mPEG2-G88C RNase A: G88C RNase A modified with 20 kDa-mPEG2 maleimide (branched) (conjugate, UniProt P61823 27-150, looked up, variant G88C)
# Ribonuclease pancreatic: KETAAAKFERQHMDSSTSAASSSNYCNQMMKSRNLTKDRCKPVNTFVHESLADVQAVCSQKNVACKNGQTNCYQSYSTMSITDCRETCSSKYPNCAYKTTQANKHIIVACEGNPYVPVHFDASV
# modifications: 20 kDa branched mPEG2 maleimide
# B2: fluorophore-labeled G88R variant of RNase A: fluorophore-labeled G88R variant of RNase A used as probe in the ribonuclease-inhibitor binding assay (conjugate, UniProt P61823 27-150, looked up, variant G88R)
# Ribonuclease pancreatic: B1 Ribonuclease pancreatic with C88R
# modifications: fluorophore label
# B3: 2 kDa mPEG-G88C RNase A: G88C RNase A modified with 2 kDa-mPEG maleimide (conjugate, UniProt P61823 27-150, looked up, variant G88C)
# Ribonuclease pancreatic: B1 Ribonuclease pancreatic
# modifications: 2 kDa mPEG maleimide
# notes: G88C RNase A modified with 2 kDa-mPEG maleimide
# B4: 60 kDa mPEG2-G89C RNase 1: G89C RNase 1 modified with 60 kDa-mPEG2 maleimide (branched) (conjugate, UniProt P07998 29-156, looked up, variant G89C)
# Ribonuclease pancreatic: KESRAKKFQRQHMDSDSSPSSSSTYCNQMMRRRNMTQGRCKPVNTFVHEPLVDVQNVCFQEKVTCKNGQGNCYKSNSSMHITDCRLTNCSRYPNCAYRTSPKERHIIVACEGSPYVPVHFDASVEDST
# modifications: 60 kDa branched mPEG2 maleimide
# How the values were obtained:
# [1] = test system: A549 lung carcinoma cells; experiment: xenograft model of non-small cell lung cancer (A549) in nude mice; type: in vivo; settings: FIG. 9
# Description: Cells from a non-small cell lung cancer cell line (A549) were grown in nine T175 flasks in F12K media and 10% fetal calf serum until the cells were confluent. 4.5×10^6 cells ([…]) were injected into the right rear flank of 4-5 week old male homozygous (nu/nu) nude mice (Harlan, Madison Wis.). Tumors were allowed to grow to an average size of ≧75 mm^3 before treatments were initiated. Animals of each tumor type, with the properly-sized tumors, were divided into treatment groups, including one set of animals treated weekly with vehicle (phosphate buffered saline, PBS). The vehicle and the test agents were all administered by intraperitoneal injection. Each animal was weighed twice a week during treatment. The tumors were measured twice weekly using calipers. Tumor volume (mm^3) was determined by using the formula for an ellipsoid sphere:
# [formula] The percent tumor growth inhibition was calculated using the formula:
# [formula] […] The efficacy is similar to that of an approved cancer drug, cisplatin.
# [2] = test system: DU145 human prostate cancer cells; experiment: xenograft model of prostate cancer (DU145) in nude mice; type: in vivo
# Description: Prostate cancer cells (DU145) were implanted into the right rear flank of 5-6 week old male homozygous (nu/nu) nude mice (Harlan). Tumors were allowed to grow to an average size of ≧75 mm^3 before treatments were initiated. Animals of each tumor type, with the properly-sized tumors, were divided into treatment groups. All the test compounds were diluted in PBS (drug vehicle), and one set of animals treated with vehicle (PBS) on the schedule with greatest frequency in the current study served as the negative control. All RNase treatments in the xenograft model are administered by intraperitoneal injection. Treatment with all agents is ongoing throughout the entire experiment (e.g., a 6 week long experiment with 1×wk dosing results in 6 total doses). Tumors were measured twice weekly using calipers. Tumor volume (mm^3) was determined by using the equation 4. The percent tumor growth inhibition was calculated using equation 5.
# human RI = target: T1, human RI; experiment: Kd^c | nM
# Description: Table printed on a drawing sheet, FIGURE 2
# Head of the field: Kd^c | nM
# Footnotes: ^aValues of Tm (± 2 °C) were determined in PBS by UV spectroscopy. The Tm values for G88R RNase and ONC in PBS are from Leland et al. (1998, Proc. Natl. Acad. Sci. 98:10407-10412). / ^bValues of kcat/KM (± SE) are for the catalysis of 6-FAM~dArU(dA)2~6-TAMRA cleavage at room temperature in 0.10 M MES-NaOH buffer (pH 6.0) containing NaCl (0.10 M) except for the kcat/KM (± SE) of ONC . The kcat/KM value for ONC is for the catalysis of 6-FAM~dArUdGdA~6-TAMRA cleavage at room temperature in 0.020 M MES-NaOH buffer (pH 6.0) containing NaCl (0.010 M). / ^cValues of Kd (± SE) are for the complex with human RI at room temperature. The Kd value for RNase A is from Lee et al. (1989, Biochem. 28:225-230). The Kd value for G88R RNase A is from Lavis et al. (2007, Anal. Biochem. 79:6775-6782). The Kd value for ONC is an estimate from Wu et al. (1993, J. Biol. Chem. 268:10686-10693). / ^dValues of IC50 (± SE) are for incorporation of [methyl-^3H]thymidine into the DNA of K-562 cells. […]
# First copying reader's note: The table body is printed very coarsely, so many digits are uncertain; the mark ^h in the (kcat/KM)cyto column has no footnote on the sheet, and the IC50 footnote is lettered d.
# Where the first naming reader finds the target: footnote: Values of Kd (± SE) are for the complex with human RI at room temperature.
# hRI = target: T2, hRI; settings: value used as basis of the competition assay; Rutkoski et al., 2005; cited from earlier work
molecule,measurement,setting,value
"N.N.[Cl][Pt][Cl] [cisplatin, reference compound]",efficacy in reducing tumor volume,"[1]; 6 mg/kg weekly, compared with 60 kDa mPEG2 G89C RNase 1",similar
"CC(=O)O[C@@]12CO[C@@H]1C[C@H](O)[C@@]1(C)C(=O)[C@H](O)C3=C(C)[C@@H](OC(=O)[C@H](O)[C@@H](NC(=O)OC(C)(C)C)c4ccccc4)C[C@@](O)([C@@H](OC(=O)c4ccccc4)[C@H]21)C3(C)C [docetaxel, reference compound]",tumor volume,"[2]; 8 mg/kg weekly, compared to a control, FIG. 5",decrease tumor volumes to similar levels
B1,Kd,human RI,37 ± 2.4 nM
same,tumor volume,"[2]; 75 mg/kg, 1 time per week, intraperitoneal, FIG. 5",reduce tumor volumes
B2,Kd,hRI,1.4 nM
B3,toxicity of the treatment as reflected by average body weight,"[2]; 15 mg/kg twice weekly, intraperitoneal, FIG. 4B",lack of toxicity
same,tumor volume,"[2]; 15 mg/kg, 2 times per week, intraperitoneal, FIG. 4",reduction in tumor volume over time
same,tumor volume,"[2]; 15 mg/kg, 2 times per week, intraperitoneal, FIG. 4, listed as 2 kDa mPEG G88C RNase A",reduce tumor volumes
B4,tumor volume,"[1]; 75 mg/kg weekly, intraperitoneal, versus control",decreases tumor volume
